Reference: article PMC11886768 (2025)

B1: GFP-CRY1 (N. benthamiana) [Arabidopsis] / cLUC-COP1 [Arabidopsis] (parent)
chain 1: MSGSVSGCGSGGCSIVWFRRDLRVEDNPALAAAVRAGPVIALFVWAPEEEGHYHPGRVSRWWLKNSLAQLDSSLRSLGTCLITKRSTDSVASLLDVVKSTGASQIFFNHLYDPLSLVRDHRAKDVLTAQGIAVRSFNADLLYEPWEVTDELGRPFSMFAAFWERCLSMPYDPESPLLPPKKIISGDVSKCVADPLVFEDDSEKGSNALLARAWSPGWSNGDKALTTFINGPLLEYSKNRRKADSATTSFLSPHLHFGEVSVRKVFHLVRIKQVAWANEGNEAGEESVNLFLKSIGLREYSRYISFNHPYSHERPLLGHLKFFPWAVDENYFKAWRQGRTGYPLVDAGMRELWATGWLHDRIRVVVSSFFVKVLQLPWRWGMKYFWDTLLDADLESDALGWQYITGTLPDSREFDRIDNPQFEGYKFDPNGEYVRRWLPELSRLPTDWIHHPWNAPESVLQAAGIELGSNYPLPIVGLDEAKARLHEALSQMWQLEAASRAAIENGSEEGLGDSAEVEEAPIEFPRDITMEETEPTRLNPNRRYEDQMVPSITSSLIRPEEDEESSLNLRNSVGDSRAEVPRNMVNTNQAQQRRAEPASNQVTAMIPEFNIRIVAESTEDSTAESSSSGRRERSGGIVPEWSPGYSEQFPSEENGIGGGSTTSSYLQNHHEILNWRRLSQTG
chain 2: MEEISTDPVVPAVKPDPRTSSVGEGANRHENDDGGSGGSEIGAPDLDKDLLCPICMQIIKDAFLTACGHSFCYMCIITHLRNKSDCPCCSQHLTNNQLYPNFLLDKLLKKTSARHVSKTASPLDQFREALQRGCDVSIKEVDNLLTLLAERKRKMEQEEAERNMQILLDFLHCLRKQKVDELNEVQTDLQYIKEDINAVERHRIDLYRARDRYSVKLRMLGDDPSTRNAWPHEKNQIGFNSNSLSIRGGNFVGNYQNKKVEGKAQGSSHGLPKKDALSGSDSQSLNQSTVSMARKKRIHAQFNDLQECYLQKRRQLADQPNSKQENDKSVVRREGYSNGLADFQSVLTTFTRYSRLRVIAEIRHGDIFHSANIVSSIEFDRDDELFATAGVSRCIKVFDFSSVVNEPADMQCPIVEMSTRSKLSCLSWNKHEKNHIASSDYEGIVTVWDVTTRQSLMEYEEHEKRAWSVDFSRTEPSMLVSGSDDCKVKVWCTRQEASVINIDMKANICCVKYNPGSSNYIAVGSADHHIHYYDLRNISQPLHVFSGHKKAVSYVKFLSNNELASASTDSTLRLWDVKDNLPVRTFRGHTNEKNFVGLTVNSEYLACGSETNEVYVYHKEITRPVTSHRFGSPDMDDAEEEAGSYFISAVCWKSDSPTMLTANSQGTIKVLVLAA

Variants of: B1
Test: luciferase complementation imaging (LCI) competition assay (cLUC-COP1 + HY5-nLUC)
Conditions: with cLUC-COP1 [Arabidopsis]; transfected N. benthamiana leaves, n = 22, CCD camera; value is the mean ('+'), median about 0.95; GFP-NLS-GUS control = 1; higher signal = less displacement …; parent: 0.6; read off a plot

Row | screen value | Variant
1 | 1.1 | chain 1 V548A P549A

Variants of: B1
Test: mammalian three-hybrid (M3H) competition assay (displacement of HY5-VP16 from E-COP1)
Conditions: with E-COP1 [Arabidopsis]; CHO-K1 cells, blue light (10 μmol m−2 s−1), 24 h; higher signal = less displacement of HY5 by the CRY1 variant; GFP control est. 150; parent: 30; read off a plot

Row | screen value (Au (SEAP/sNLuc)) | Variant
2 | 150 | chain 1 V548A P549A

Same assay, conditions: with E-COP1 [Arabidopsis]; CHO-K1 cells, darkness, 24 h; higher signal = less displacement of HY5 by the CRY1 variant; GFP control est. 150; parent: 76; read off a plot

Row | screen value (Au (SEAP/sNLuc)) | Variant
3 | 130 | chain 1 V548A P549A
